In data set [1] the target is Helicobacter pylori XerH recombinase, full-length wild type (Helicobacter pylori) (UniProt O25386). As to the kind of experiment: crystal structure; full-length wild-type XerH co-crystallised with a 30 bp difH DNA duplex (pre-cleavage synaptic complex: four XerH, two difH); protein:DNA 1.2:1; well 0.2 M NaCl, 20-25% PEG 3350; 6°C.
For data set [2] the target is unchanged. As to the kind of experiment: crystal structure; XerH co-crystallised with nicked palindromic 'suicide' difHLP DNA (post-cleavage synaptic complex; two XerH and one DNA in the asymmetric unit, tetramer by crystallographic two-fold); well 0.1 M HEPES pH 7-8, 0.2 M MgCl2, 25-35% PEG 400; 6°C.
The target in data set [3] is T1, XerH (Helicobacter pylori strain 26995 (as …, UniProt O25386 1-362)).
T1 sequence: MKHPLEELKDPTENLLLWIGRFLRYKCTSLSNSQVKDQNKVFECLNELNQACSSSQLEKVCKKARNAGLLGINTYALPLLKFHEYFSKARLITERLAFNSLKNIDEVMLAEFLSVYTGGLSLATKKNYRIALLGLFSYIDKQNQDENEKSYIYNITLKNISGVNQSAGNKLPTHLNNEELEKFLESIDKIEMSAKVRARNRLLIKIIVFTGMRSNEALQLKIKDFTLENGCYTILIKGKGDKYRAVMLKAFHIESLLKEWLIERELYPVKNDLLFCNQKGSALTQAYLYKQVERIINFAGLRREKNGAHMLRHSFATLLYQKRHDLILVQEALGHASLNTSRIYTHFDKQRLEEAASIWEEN
In words: analytical SEC; EMSA: 25 mM HEPES pH 7.5, 100 mM NaCl, 10 mM MgCl2, 5% glycerol, 1 mM DTT, 1 mM EDTA, 1 h at 30 C, 20 nM DNA, 0-360 nM XerH; SEC complexes prepared as for crystallization (dialysed to 25 mM Na acetate pH 5.5, 200 mM NaCl, 5% glycerol, 1 mM DTT). The following applies: protein: recombinant, tags: His6-SUMO N-terminal, removed with SenP2, blunt. (Mobility shift assays separate free from complexed probe on a gel.)

Data set [4] addresses T1, XerH. As to the kind of experiment: analytical SEC; no shift in retention; EMSA: 25 mM HEPES pH 7.5, 100 mM NaCl, 10 mM MgCl2, 5% glycerol, 1 mM DTT, 1 mM EDTA, 1 h at 30 C, 20 nM DNA, 0-360 nM XerH; SEC complexes prepared as for crystallization (dialysed to 25 mM Na acetate pH 5.5, 200 mM NaCl, 5% glycerol, 1 mM DTT). The following applies: protein: recombinant; tags: His6-SUMO N-terminal, removed with SenP2; blunt, self-complementary, 2 copies of one strand.

Data set [5] deals with T1, XerH. In words: X-ray crystallography; 2.1 A; pre-cleavage, pH 5.5, no metal; EMSA: 25 mM HEPES pH 7.5, 100 mM NaCl, 10 mM MgCl2, 5% glycerol, 1 mM DTT, 1 mM EDTA, 1 h at 30 C, 20 nM DNA, 0-360 nM XerH; SEC complexes prepared as for crystallization (dialysed to 25 mM Na acetate pH 5.5, 200 mM NaCl, 5% glycerol, 1 mM DTT). The conditions noted are these: protein: recombinant; tags: His6-SUMO N-terminal, removed with SenP2; blunt ends, terminal G:A mismatch at strand 1 position 1 as printed; two duplexes per complex.

The target of data set [6] is T1, XerH. As to the kind of experiment: EMSA; 10 mM Mg2+; all complex species summed; EMSA: 25 mM HEPES pH 7.5, 100 mM NaCl, 10 mM MgCl2, 5% glycerol, 1 mM DTT, 1 mM EDTA, 1 h at 30 C, 20 nM DNA, 0-360 nM XerH; SEC complexes prepared as for crystallization (dialysed to 25 mM Na acetate pH 5.5, 200 mM NaCl, 5% glycerol, 1 mM DTT). The conditions noted are these: protein: recombinant; tags: His6-SUMO N-terminal, removed with SenP2; label: 5'-32P; blunt.

In a further data set the target is XerH K290S (Helicobacter pylori strain 26995 (as …, UniProt O25386 1-362, K290S)). As to the kind of experiment: EMSA; K290S does not affect difH binding; EMSA: 25 mM HEPES pH 7.5, 100 mM NaCl, 10 mM MgCl2, 5% glycerol, 1 mM DTT, 1 mM EDTA, 1 h at 30 C, 20 nM DNA, 0-360 nM XerH; SEC complexes prepared as for crystallization (dialysed to 25 mM Na acetate pH 5.5, 200 mM NaCl, 5% glycerol, 1 mM DTT). The following applies: protein: recombinant; tags: His6-SUMO N-terminal, removed with SenP2; label: 5'-32P; blunt.

Where a chain is given by its changes, count along the chain named.

By stoichiometry N is commonly meant a count of units in the complex or per binding partner. For the molecule “Helicobacter pylori XerH recombinase, full-length wild type (from UniProt O25386 1-362) (enzyme)”, the stoichiometry N in data set [1] and in data set [2] was 4 throughout.

B1: difH 30 bp (SEC) (dsDNA)
DNA 1: TAGTTATGAAAACTGCACTTTTCAAACTTT
DNA 2: AAAGTTTGAAAAGTGCAGTTTTCATAACTA
On to B1, for which the binding result in the data set with XerH [3] was “binds”.

B2: difHRP (right-arm palindrome, 30 bp) (dsDNA)
DNA 1: AAAGTTTGAAAAGTGCACTTTTCAAACTTT
DNA 2: B2 DNA 1
With B2, the binding result with XerH [4] is on record as “no binding”.

B3: difH 30 bp (pre-cleavage crystal) (dsDNA)
DNA 1: B1 DNA 1 with T1G
DNA 2: B1 DNA 2
Regarding B3, the binding result with XerH [5] is “binds”.

B4: difHL 50 bp (left arm, right arm replaced by random) (dsDNA)
DNA 1: TAAATTCATTTAGTTATGAAAACTGCACTTAAATCAAACCATTTAAATAA
DNA 2: TTATTTAAATGGTTTGATTTAAGTGCAGTTTTCATAACTAAATGAATTTA
What is called Kd is the concentration at which binding is half-saturated. In the case of B4, the Kd in the data set with XerH [6] amounted to 0.18 µM.

B5: difHR 50 bp (right arm, left arm replaced by random) (dsDNA)
DNA 1: CATATTTTTCCTTTTAAATTCACTGCACTTTTCAAACTTTTAAATCAAAC
DNA 2: GTTTGATTTAAAAGTTTGAAAAGTGCAGTGAATTTAAAAGGAAAAATATG
On to B5, for which the equilibrium dissociation constant (Kd) with XerH [6] turned out to be 0.23 µM.

B6: difHLP (left-arm palindrome, 30 bp) (dsDNA)
DNA 1: TAGTTATGAAAACTGCAGTTTTCATAACTA
DNA 2: B6 DNA 1
As for B6, the binding result with XerH [3] (self-complementary, 2 copies of one strand) is reported as “binds”.

B7: difH 50 bp (dsDNA)
DNA 1: TAAATTCATTTAGTTATGAAAACTGCACTTTTCAAACTTTTAAATCAAAC
DNA 2: GTTTGATTTAAAAGTTTGAAAAGTGCAGTTTTCATAACTAAATGAATTTA
On to B7, for which the binding result with XerH K290S is listed as “binds”. In addition, the Kd with XerH [6] was 0.15 µM.
